{"source": "patent CN113817050A", "molecular_target": "抗原(Biacore 8K表面等离子共振实验，未指明)", "experiment": "SPR, Biacore 8K; antigen and format not given"}
{"binder": "抗SARS-CoV-2的单克隆抗体1H8 (antibody, V domains shown) VH: EVQLVESGGGLVQPGGSLRLSCAASEITVSSNYMNWVRQAPGKGLEWVSVIYSGGTTYYADSVKGRFTISRDNSENTLYLQMNSLRAEDTAVYYCARDLMEVGGMDVWGQGTTVTVSS VL: DIVMTQSPSSLSASVGDRVTITCRASQGVSNYLAWYQQKPGKVPKLLIYAASTLQSGVPSRFSGSRSGTDFTLTISSLQPEDVATYYCQNYNSAPFAFGPGTKVEIK", "values": [{"measurement": "Kd", "value": 18.7, "unit": "nM"}, {"measurement": "koff", "value": 0.00138, "unit": "s⁻¹"}, {"measurement": "kon", "value": 73600, "unit": "M⁻¹ s⁻¹"}]}
